B1: fluorescein-MT-II conjugate (2) (peptide)
peptide: CXLDHFRWK
modifications: not fully specified; Cys 1 thiol joined by a disulfide to a 2-thioethyl carbonate linker carrying fluorescein; 6-aminohexanoic acid (6-Ahx) at 2; Nle at 3; D-Phe at 6; lactam cyclization between Asp 4 and Lys 9 side chains; C-terminal amide; no N-terminal acetyl on Nle (replaced by the Cys-6-Ahx spacer)
notes: also called fluorescein-MT-II (2); compound 2
B2: camptothecin (CPT)-MT-II conjugate (1) (peptide)
peptide: CXLDHFRWK
modifications: not fully specified; Cys 1 thiol joined by a disulfide to a 2-thioethyl carbonate linker carrying camptothecin; 6-aminohexanoic acid (6-Ahx) at 2; Nle at 3; D-Phe at 6; lactam cyclization between Asp 4 and Lys 9 side chains; C-terminal amide; no N-terminal acetyl on Nle (replaced by the Cys-6-Ahx spacer)
notes: also called CPT-MT-II (1); camptothecin-MT-II (1)

Legend:
[1] = target: T1, human melanocortin 1 receptor (MC1R) (human, UniProt Q01726 1-317); experiment: competitive binding vs 125I-NDP-α-MSH on whole HEK293 cells overexpressing human MC1R
T1 construct: whole, on cells; also called MC1 receptor
T1 sequence (Q01726 whole entry): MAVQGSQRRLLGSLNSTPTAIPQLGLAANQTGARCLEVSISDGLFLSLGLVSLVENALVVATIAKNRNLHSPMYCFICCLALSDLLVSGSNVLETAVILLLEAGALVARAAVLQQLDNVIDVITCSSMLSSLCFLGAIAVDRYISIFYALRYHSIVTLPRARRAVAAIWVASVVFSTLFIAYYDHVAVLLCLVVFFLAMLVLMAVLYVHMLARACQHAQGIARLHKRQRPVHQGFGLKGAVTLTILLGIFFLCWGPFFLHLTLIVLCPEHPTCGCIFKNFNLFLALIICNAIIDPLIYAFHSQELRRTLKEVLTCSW
Protocol: (§1) Competitive binding assays were performed on whole cells. Stably transfected HEK293 cell lines overexpressing human MC1R, MC3R, MC4R or MC5R were seeded on 96-well plates 48 h before the assay and grown to 100,000 cells per well. For the assay, the medium was removed, and cells were washed twice with a binding buffer containing minimum essential medium with Earle's salt (MEM, GIBCO), 25 mM HEPES (pH 7.4), 0.2% bovine serum albumin, 1 mM 1,10-phenanthrolone, 0.5 mg/L leupeptin and 200 mg/L bacitracin. […] The medium was subsequently removed, and the cells were washed twice with the binding buffer. The cells were lysed by 50 μL of 0.1 mM NaOH and 50 μL of 1% Triton X-100. The plates were left dry overnight under the hood, and 50 μL of scintillation fluid (OptiPhase SuperMix, PerkinElmer) were added in each well. The radioactivity was measured using MicroBeta 2 microplate counter (PerkinElmer). Data were analyzed using Graphpad Prism 6 (Graphpad Software, San Diego, Calif.).

human MC3R = target: T2, human MC3R (human, UniProt P41968 1-323); experiment: competitive binding vs 125I-NDP-α-MSH on whole HEK293 cells overexpressing human MC3R
T2 construct: whole, on cells
T2 sequence (P41968 whole entry): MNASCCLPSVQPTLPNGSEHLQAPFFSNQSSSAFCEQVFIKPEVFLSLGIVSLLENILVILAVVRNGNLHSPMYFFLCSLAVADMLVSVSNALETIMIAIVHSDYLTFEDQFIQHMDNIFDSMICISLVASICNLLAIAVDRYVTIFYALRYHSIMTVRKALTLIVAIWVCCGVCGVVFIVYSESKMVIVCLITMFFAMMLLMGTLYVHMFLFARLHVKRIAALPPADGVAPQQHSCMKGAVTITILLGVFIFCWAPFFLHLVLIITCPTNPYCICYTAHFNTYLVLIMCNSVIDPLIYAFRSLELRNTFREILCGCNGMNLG
Protocol: as §1

human MC4R = target: T3, human MC4R (human, UniProt P32245 1-332); experiment: competitive binding vs 125I-NDP-α-MSH on whole HEK293 cells overexpressing human MC4R
T3 construct: whole, on cells
T3 sequence (P32245 whole entry): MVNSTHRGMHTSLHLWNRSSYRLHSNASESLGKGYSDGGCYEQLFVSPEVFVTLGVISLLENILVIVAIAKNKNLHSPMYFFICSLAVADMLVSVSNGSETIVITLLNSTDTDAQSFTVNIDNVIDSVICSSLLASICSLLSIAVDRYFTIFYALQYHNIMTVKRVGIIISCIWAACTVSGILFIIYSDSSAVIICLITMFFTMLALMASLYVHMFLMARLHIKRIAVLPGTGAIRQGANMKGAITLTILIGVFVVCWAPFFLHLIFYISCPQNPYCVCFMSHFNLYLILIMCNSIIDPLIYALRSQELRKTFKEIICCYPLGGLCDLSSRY
Protocol: as §1

human MC5R = target: T4, human MC5R (human, UniProt P33032 1-325); experiment: competitive binding vs 125I-NDP-α-MSH on whole HEK293 cells overexpressing human MC5R
T4 construct: whole, on cells
T4 sequence (P33032 whole entry): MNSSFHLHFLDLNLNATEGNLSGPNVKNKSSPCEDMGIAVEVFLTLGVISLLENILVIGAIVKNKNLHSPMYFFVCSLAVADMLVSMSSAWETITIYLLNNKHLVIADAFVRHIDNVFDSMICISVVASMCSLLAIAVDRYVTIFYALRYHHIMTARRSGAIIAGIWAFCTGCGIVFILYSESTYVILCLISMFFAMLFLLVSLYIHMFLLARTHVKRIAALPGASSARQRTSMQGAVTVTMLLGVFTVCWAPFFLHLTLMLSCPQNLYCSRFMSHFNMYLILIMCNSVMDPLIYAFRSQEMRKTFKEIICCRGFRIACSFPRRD
Protocol: as §1

| Binder | Ki [1] [µM] | Ki (human MC3R) [µM] | Ki (human MC4R) [µM] | Ki (human MC5R) [µM] |
| --- | --- | --- | --- | --- |
| B1 | 0.172 |  |  |  |
| B2 | 0.057 | 0.3 | 0.173 | 0.194 |

Source: US20220143196A1 (ARIZONA BOARD OF REGENTS ON BEHALF OF THE UNIVERSITY OF …, published 2022)
